Assays:
[1] = target: T1, human Siglec-8 (full-length, on transfected CHO or 293 cells, or native on human eosinophils) (human, UniProt Q9NYZ4 17-499); test: flow cytometry on 293 cells transiently transfected with full-length human Siglec-8; A647 anti-human Fc-gamma secondary; median fluorescence, nonlinear fit; table under the graph
Method: (§1) The binding of the lmG2 and humanized versions (further including Siglec8 hzG2v14), formatted as monomeric VHH-hIgG1 fusions proteins using a non-dimerizing human IgG1 Fe variant region lacking a hinge Fe NNT, was assessed by flow cytometry using 293 cells that had been transiently transfected with full-length human Siglec-8 and detected with an anti-human AF647 secondary antibody. Binding specificity was assessed using untransfected 293 cells as a control. For the binding assays, Siglec-8 293 cells or untransformed 293 cells were seeded in a 96 well U-bottom plate with 50 k cells/well in FACS buffer and incubated at 4° C. with a titration of anti-Siglec8-VHH-NNT for 30 minutes. After washing, the plates were incubated with an A647-conjugated anti-human Fcγ specific secondary antibody diluted 1:10,000 in FACS buffer for 20 minutes at 4° C. The plates were washed, and binding was determined by flow cytometry quantitating anti-human A647 median fluorescent intensity. The maximum specific binding (Bmax) and affinity (Kd) for was determined from the flow cytometry binding data using a nonlinear fit model.

[2] = target: T1, human Siglec-8 (full-length, on …); test: flow cytometry on 293 cells transiently transfected with full-length human Siglec-8; A647 anti-human Fc-gamma secondary; median fluorescence, nonlinear fit; table under the graph (Kd column without unit, concentration axis nM Ab)
Method: as §1

[3] = target: T1, human Siglec-8 (full-length, on …); test: flow cytometry on human eosinophils (CD16- CCR3+) from whole blood; anti-human AF647 secondary; MFI
Excerpt: To determine if increasing the valency of Siglec-8 antibodies could enhance agonist activity, the parental llama B12, D1 and E2 VHH sequences were used to generate tetravalent (Tet-B12 (cx8467; SEQ ID NO:50 linked to an Fe), Tet-D1 (cx8469; SEQ ID NO:56 linked to an Fe), and Tet-E2 (cx8463; SEQ ID NO:62 linked to an Fc)) and hexavalent (Hex-B12 (cx8466; SEQ ID NO:51 linked to an Fe), Hex-D1 (cx8523; SEQ ID NO:57 linked to an Fe), and Hex-E2 (cx8522; SEQ ID NO:165 linked to an Fc)), Siglec8-VHH-Fc antibodies linked to a reduced effector function xELL human Fc region via linker 2. The bivalent (Bi-B12 (cx8982), Bi-D1 (cx8983) and Bi-E2 (cx8984)), tetravalent, and hexavalent Siglec8-VHH-Fc antibodies were assessed by flow cytometry for binding to eosinophils (CD16⁻ CCR3⁺). Cells were isolated from whole blood by centrifugation, washed twice with 2% FBS PBS, and resuspended in 1×RBC lysis buffer for 10 minutes at room temperature (RT), washed once in 2% FBS PBS and treated with a second RBC lysis step and washed twice with 2% FBS. Cells were seeded at 200 k/well and resuspended in Human FC block for 10 minutes at RT. Cells were spun down and then resuspended in titrated test articles starting at 200 nM 1:4 and incubated for 30 minutes at 4° C. before being washed twice and resuspended in secondary mixture (2*; anti-CCR3 FITC, anti-human AF647, PI, anti-CD16 BV605) and incubated for 30 minutes at 4° C., washed twice, and bound antibodies were detected via flow cytometry (Novocyte).
As shown in FIG. 2A-2C, bivalent, tetravalent, and hexavalent Siglec8-VHH-Fc antibodies B12 (FIG. 2A), D1 (FIG. 2B) and E2 (FIG. 2C) bound to eosinophils. The calculated affinity was similar between the bivalent, tetravalent, and hexavalent hzSiglec8-VHH-Fc antibodies. The observed Bmax was reduced with increasing valency as anticipated, due the fact that the Fc portion of the antibody was detected in this assay and the ratio of Fc regions to anti-Siglec-8 binding domains is inverse to valency. No binding was observed on other granulocyte populations (CD16⁺ CCR3⁻).

T1 sequence (Q9NYZ4 17-499): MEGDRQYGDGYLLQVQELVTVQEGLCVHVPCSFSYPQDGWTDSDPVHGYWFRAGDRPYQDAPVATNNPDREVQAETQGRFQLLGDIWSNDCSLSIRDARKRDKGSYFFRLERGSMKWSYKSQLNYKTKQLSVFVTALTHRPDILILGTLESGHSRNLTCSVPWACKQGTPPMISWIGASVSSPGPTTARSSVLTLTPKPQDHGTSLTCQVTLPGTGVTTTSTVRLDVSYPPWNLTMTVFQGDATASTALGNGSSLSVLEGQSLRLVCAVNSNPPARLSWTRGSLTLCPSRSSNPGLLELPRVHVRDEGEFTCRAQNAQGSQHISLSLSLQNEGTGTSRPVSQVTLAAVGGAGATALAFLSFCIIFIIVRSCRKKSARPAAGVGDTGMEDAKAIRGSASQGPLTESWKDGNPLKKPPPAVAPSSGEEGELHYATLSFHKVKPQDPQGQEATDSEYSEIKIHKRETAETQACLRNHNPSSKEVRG

Binder	Bmax [1]	Kd [2] [pM]	binding result [3]
Siglec8 hzG2v2.1, monomeric VHH-hIgG1 fusion (Fc NNT) (Fc fusion, Monomeric format; not shown: non-dimerizing human IgG1 Fc variant lacking a hinge (Fc NNT)) EVQLLESGGGEVQPGGSLRLSCAASGSISIFSMYVVAWYRQAPGKEREWVAFIQRGGTANYAESAKGRFTISRDNAKNTVYLQMSSLRAEDTAVYYCNYINSDNEIGGPWGQGTLVTVKP	3.81e+06 Median (anti-human A647)	1570	–
Siglec8 hzG2v16, monomeric VHH-hIgG1 fusion (Fc NNT) (Fc fusion, Monomeric format; not shown: non-dimerizing human IgG1 Fc variant lacking a hinge (Fc NNT)) EVQLLESGGGEVQPGGSLRLSCAASGSISIFSLYVVAWYRQAPGKEREWVAFIQRGGTANYAESAKGRFTISRDNAKNTVYLQMSSLRAEDTAVYYCNYINSDNEIGGPWGQGTLVTVKP	1.49e+06 Median (anti-human A647)	100	–
Siglec8 hzG2v14, monomeric VHH-hIgG1 fusion (Fc NNT) (Fc fusion, Monomeric format; not shown: non-dimerizing human IgG1 Fc variant lacking a hinge (Fc NNT)) EVQLLESGGGEVQPGGSLRLSCAASGSISIFSMYVVAWYRQAPGKEREWVAFIQRGGTANYAESAKGRFTISRDNAKNTVYLQMSSLRAEDTAVYYCNYINTDNEIGGPWGQGTLVTVKP	1.35e+06 Median (anti-human A647)	164	–
Siglec8 hzG2v13, monomeric VHH-hIgG1 fusion (Fc NNT) (Fc fusion, Monomeric format; not shown: non-dimerizing human IgG1 Fc variant lacking a hinge (Fc NNT)) EVQLLESGGGEVQPGGSLRLSCAASGSISIFSMYVVAWYRQAPGKEREWVAFIQRGGTANYAESAKGRFTISRDNAKNTVYLQMSSLRAEDTAVYYCNYITSDNEIGGPWGQGTLVTVKP	1.06e+06 Median (anti-human A647)	138	–
Siglec8 hzG2v15, monomeric VHH-hIgG1 fusion (Fc NNT) (Fc fusion, Monomeric format; not shown: non-dimerizing human IgG1 Fc variant lacking a hinge (Fc NNT)) EVQLLESGGGEVQPGGSLRLSCAASGSISIFSYYVVAWYRQAPGKEREWVAFIQRGGTANYAESAKGRFTISRDNAKNTVYLQMSSLRAEDTAVYYCNYINSDNEIGGPWGQGTLVTVKP	1.4e+06 Median (anti-human A647)	175	–
Siglec8 hzG2v24, monomeric VHH-hIgG1 fusion (Fc NNT) (Fc fusion, Monomeric format; not shown: non-dimerizing human IgG1 Fc variant lacking a hinge (Fc NNT)) QVTLKESGGGLVRTGGSLRLSCAASGSISIFSMYVVAWYRQAPGKQREWVAFIQRGGTANYAESAKGRFTISRDNAKNTVYLQMSSLRAEDTAVYYCNYINSDNEIGGPWGQGTLVTVKP	1.27e+06 Median (anti-human A647)	181	–
Siglec8 hzG2v6.1, monomeric VHH-hIgG1 fusion (Fc NNT) (Fc fusion, Monomeric format; not shown: non-dimerizing human IgG1 Fc variant lacking a hinge (Fc NNT)) EVQLLESGGGEVQPGGSLRLSCAASGSISIFSMYVVAWYRQAPGKQREWVSFIQRGGTANYAESAKGRFTISRDNAKNTVYLQMSSLRAEDTAVYYCNYINSDNEIGGPWGQGTLVTVKP	3.63e+06 Median (anti-human A647)	1700	–
Siglec8 hzG2v11, monomeric VHH-hIgG1 fusion (Fc NNT) (Fc fusion, Monomeric format; not shown: non-dimerizing human IgG1 Fc variant lacking a hinge (Fc NNT)) EVQLLESGGGEVQPGGSLRLSCAASGSISIFSMYVVAWYRQAPGKEREWVAFIQRGGTANYAESAKGRFTISRDNAKNTVYLQMSSLRAEDTAVYYCNYIQSDNEIGGPWGQGTLVTVKP	1.47e+06 Median (anti-human A647)	140	–
Siglec8 hzG2v12, monomeric VHH-hIgG1 fusion (Fc NNT) (Fc fusion, Monomeric format; not shown: non-dimerizing human IgG1 Fc variant lacking a hinge (Fc NNT)) EVQLLESGGGEVQPGGSLRLSCAASGSISIFSMYVVAWYRQAPGKEREWVAFIQRGGTANYAESAKGRFTISRDNAKNTVYLQMSSLRAEDTAVYYCNYISSDNEIGGPWGQGTLVTVKP	1.25e+06 Median (anti-human A647)	327	–

Further lines, results first:

Bmax [1]	Kd [2] [pM]	binding result [3]	Binder
–	–	binds	Hex-B12, hexavalent Siglec8-VHH-Fc (xELL) (Fc fusion, Homodimer through the Fc; also called cx8466) QVQVVESGGGLVQPGGSLRLSCAASGSTSLLNAMAWYRQAPGKERELVAAISSGGGTYYADSVKGRFTISTNNAKNTLYLQMNSLKPEDTAMYYCAPGPNYSDYEEINWGQGTQVTVKPGGSGGSQVQVVESGGGLVQPGGSLRLSCAASGSTSLLNAMAWYRQAPGKERELVAAISSGGGTYYADSVKGRFTISTNNAKNTLYLQMNSLKPEDTAMYYCAPGPNYSDYEEINWGQGTQVTVKPGGSGGSQVQVVESGGGLVQPGGSLRLSCAASGSTSLLNAMAWYRQAPGKERELVAAISSGGGTYYADSVKGRFTISTNNAKNTLYLQMNSLKPEDTAMYYCAPGPNYSDYEEINWGQGTQVTVKPGGGGDKTHTCPPCPAPGGPSVFLFPPKPKDTLMISRTPEVTCVVVDVSHEDPEVKFNWYVDGVEVHNAKTKPREEQYNSTYRVVSVLTVLHQDWLNGKEYKCKVSNKALPAPIEKTISKAKGQPREPQVYTLPPSRDELTKNQVSLTCLVKGFYPSDIAVEWESNGQPENNYKTTPPVLDSDGSFFLYSKLTVDKSRWQQGNVFSCSVMHEALHNHYTQKSLSLSPGK
–	–	binds	Hex-D1, hexavalent Siglec8-VHH-Fc (xELL) (Fc fusion, Homodimer through the Fc; also called cx8523) QVQLVESGGGLVQPGGSLRLSCAASGSIASIHGMGWYRQAPGKERELVAAIAGEGSTYYADSVKGRFTISRDFAKNTLYLQMNNLKAEDTAMYYCANNDERDDYWGQGTQVTVKPGGSGGSQVQLVESGGGLVQPGGSLRLSCAASGSIASIHGMGWYRQAPGKERELVAAIAGEGSTYYADSVKGRFTISRDFAKNTLYLQMNNLKAEDTAMYYCANNDERDDYWGQGTQVTVKPGGSGGSQVQLVESGGGLVQPGGSLRLSCAASGSIASIHGMGWYRQAPGKERELVAAIAGEGSTYYADSVKGRFTISRDFAKNTLYLQMNNLKAEDTAMYYCANNDERDDYWGQGTQVTVKPGGGGDKTHTCPPCPAPGGPSVFLFPPKPKDTLMISRTPEVTCVVVDVSHEDPEVKFNWYVDGVEVHNAKTKPREEQYNSTYRVVSVLTVLHQDWLNGKEYKCKVSNKALPAPIEKTISKAKGQPREPQVYTLPPSRDELTKNQVSLTCLVKGFYPSDIAVEWESNGQPENNYKTTPPVLDSDGSFFLYSKLTVDKSRWQQGNVFSCSVMHEALHNHYTQKSLSLSPGK
–	–	binds	Tet-D1, tetravalent Siglec8-VHH-Fc (xELL) (Fc fusion, Homodimer through the Fc; also called cx8469) QVQLVESGGGLVQPGGSLRLSCAASGSIASIHGMGWYRQAPGKERELVAAIAGEGSTYYADSVKGRFTISRDFAKNTLYLQMNNLKAEDTAMYYCANNDERDDYWGQGTQVTVKPGGSGGSQVQLVESGGGLVQPGGSLRLSCAASGSIASIHGMGWYRQAPGKERELVAAIAGEGSTYYADSVKGRFTISRDFAKNTLYLQMNNLKAEDTAMYYCANNDERDDYWGQGTQVTVKPGGGGDKTHTCPPCPAPGGPSVFLFPPKPKDTLMISRTPEVTCVVVDVSHEDPEVKFNWYVDGVEVHNAKTKPREEQYNSTYRVVSVLTVLHQDWLNGKEYKCKVSNKALPAPIEKTISKAKGQPREPQVYTLPPSRDELTKNQVSLTCLVKGFYPSDIAVEWESNGQPENNYKTTPPVLDSDGSFFLYSKLTVDKSRWQQGNVFSCSVMHEALHNHYTQKSLSLSPGK
–	–	binds	Tet-E2, tetravalent Siglec8-VHH-Fc (xELL) (Fc fusion, Homodimer through the Fc; also called cx8463) QVQLVESGGGLVQPGGSLRLSCATSGIIFTSNVINWYRQAPGKQREFVAFITSITSGQSTMYADAVKGRFTVSRDNDKNIGYLQMTSLQPEDTARYVCNVGAYWGQGTQVTVKPGGSGGSQVQLVESGGGLVQPGGSLRLSCATSGIIFTSNVINWYRQAPGKQREFVAFITSITSGQSTMYADAVKGRFTVSRDNDKNIGYLQMTSLQPEDTARYVCNVGAYWGQGTQVTVKPGGGGDKTHTCPPCPAPGGPSVFLFPPKPKDTLMISRTPEVTCVVVDVSHEDPEVKFNWYVDGVEVHNAKTKPREEQYNSTYRVVSVLTVLHQDWLNGKEYKCKVSNKALPAPIEKTISKAKGQPREPQVYTLPPSRDELTKNQVSLTCLVKGFYPSDIAVEWESNGQPENNYKTTPPVLDSDGSFFLYSKLTVDKSRWQQGNVFSCSVMHEALHNHYTQKSLSLSPGK
–	–	binds	Tet-B12, tetravalent Siglec8-VHH-Fc (xELL) (Fc fusion, Homodimer through the Fc; also called cx8467) QVQVVESGGGLVQPGGSLRLSCAASGSTSLLNAMAWYRQAPGKERELVAAISSGGGTYYADSVKGRFTISTNNAKNTLYLQMNSLKPEDTAMYYCAPGPNYSDYEEINWGQGTQVTVKPGGSGGSQVQVVESGGGLVQPGGSLRLSCAASGSTSLLNAMAWYRQAPGKERELVAAISSGGGTYYADSVKGRFTISTNNAKNTLYLQMNSLKPEDTAMYYCAPGPNYSDYEEINWGQGTQVTVKPGGGGDKTHTCPPCPAPGGPSVFLFPPKPKDTLMISRTPEVTCVVVDVSHEDPEVKFNWYVDGVEVHNAKTKPREEQYNSTYRVVSVLTVLHQDWLNGKEYKCKVSNKALPAPIEKTISKAKGQPREPQVYTLPPSRDELTKNQVSLTCLVKGFYPSDIAVEWESNGQPENNYKTTPPVLDSDGSFFLYSKLTVDKSRWQQGNVFSCSVMHEALHNHYTQKSLSLSPGK
